B1: bMERB domain (Rab binding domain) of Mical-cL, residues 534-683 (domain or fragment, human, UniProt O94851 1796-1945, looked up)
chain: KQEELKRLYKAQAIQRQLEEVEERQRASEIQGVRLEKALRGEADSGTQDEAQLLQEWFKLVLEKNKLMRYESELLIMAQELELEDHQSRLEQKLREKMLKEESQKDEKDLNEEQEVFTELMQVIEQRDKLVDSLEEQRIREKAEDQHFES
notes: Mical C-terminal like protein (Mical-cL), human, bMERB domain, residues 534-683; Limits are stated for the crystallised construct; also called Mical-cL_(534-683); RBD of Mical-cL
B2: bMERB domain (Rab binding domain) of Mical-3, residues 1841-1990 (domain or fragment, human, UniProt Q7RTP6 1841-1990, looked up)
chain: KQEELKRLHRAQIIQRQLQQVEERQRRLEERGVAVEKALRGEAGMGKKDDPKLMQEWFKLVQEKNAMVRYESELMIFARELELEDRQSRLQQELRERMAVEDHLKTEEELSEEKQILNEMLEVVEQRDSLVALLEEQRLREREEDKDLEA
notes: Mical-3, human, whole predicted bMERB domain, residues 1841-1990 (isoform 1); printed elsewhere as 1841-1992; Limits are stated for the crystallised selenomethionine construct; also called Mical-3_(1841-1990); RBD of Mical-3
B3: bMERB domain (Rab binding domain) of EHBP1 (domain or fragment)
chain: not shown
notes: EHBP1 1047-1231 (bMERB domain with CaaX box) is named for the prenylation and localisation experiments only; also called RBD of EHBP1
B4: Rab8a, full length, loaded with GppNHp (natural protein, human, UniProt P61006 1-207, looked up)
chain: MAKTYDYLFKLLLIGDSGVGKTCVLFRFSEDAFNSTFISTIGIDFKIRTIELDGKRIKLQIWDTAGQERFRTITTAYYRGAMGIMLVYDITNEKSFDNIRNWIRNIEEHASADVEKMILGNKCDVNDKRQVSKERGEKLALDYGIKFMETSAKANINVENAFFTLARDIKAKMDKKLEGNSPQGSNQGVKITPDQQKRSSFFRCVLL
notes: Rab8a, human; called Rab8 in the results and Rab8aFl in the crystallisation methods; also called Rab8aFl; source: expressed and purified as described previously (Bleimling et al., 2009), loaded with GppNHp, gel filtration
B5: bMERB domain (Rab binding domain) of Mical-1, residues 918-1067 (domain or fragment, human, UniProt Q8TDZ2 918-1067, looked up)
chain: KEEEMKRFCKAQTIQRRLNEIEAALRELEAEGVKLELALRRQSSSPEQQKKLWVGQLLQLVDKKNSLVAEEAELMITVQELNLEEKQWQLDQELRGYMNREENLKTAADRQAEDQVLRKLVDLVNQRDALIRFQEERRLSELALGTGAQG
notes: Mical-1, human, bMERB domain, residues 918-1067 (isoform 1); Limits are stated for the crystallised construct; also called Mical-1_(918-1067); RBD of Mical-1

Assays:
[1] = biological target: the molecule itself; assay: SEC; analytical size exclusion chromatography of the bMERB domain alone (112.5 µM); apparent size from the retention
[2] = biological target: B4; assay: ITC; iTC200, 25°C; 400 µM Rab titrated into 20–40 µM bMERB domain in the cell; 20 mM Hepes pH 7.5, 50 mM NaCl, 2 mM MgCl2, 1 mM TCEP; conditions: both partners purified
[3] = biological target: T1, Rab13, loaded with GppNHp (UniProt P51153 1-203); assay: as above; conditions: both partners purified
T1 construct: Rab13; also called Rab13:GppNHp; source: expressed and purified as described previously (Bleimling et al., 2009), loaded with GppNHp, gel filtration
T1 sequence (looked up): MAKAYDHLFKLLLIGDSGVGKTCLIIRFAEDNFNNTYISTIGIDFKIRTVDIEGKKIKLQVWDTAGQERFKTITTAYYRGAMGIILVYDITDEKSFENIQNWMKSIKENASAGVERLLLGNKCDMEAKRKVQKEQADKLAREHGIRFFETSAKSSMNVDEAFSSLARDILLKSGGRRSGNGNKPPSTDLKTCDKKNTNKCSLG

[4] = biological target: B4; assay: as above; conditions: both partners purified; remark: listed apart in the source
[5] = biological target: T2, Rab10, full length, loaded with GppNHp (human, UniProt P61026 1-200); assay: as above; conditions: both partners purified
T2 construct: Rab10, human; Rab10Fl in the crystallisation methods; also called Rab10Fl; source: expressed and purified as described previously (Bleimling et al., 2009), loaded with GppNHp, gel filtration
T2 sequence (looked up): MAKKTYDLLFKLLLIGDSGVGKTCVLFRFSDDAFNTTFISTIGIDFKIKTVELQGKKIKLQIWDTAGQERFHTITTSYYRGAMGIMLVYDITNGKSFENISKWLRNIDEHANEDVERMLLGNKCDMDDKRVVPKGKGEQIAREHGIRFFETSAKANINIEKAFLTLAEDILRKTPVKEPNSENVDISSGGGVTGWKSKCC

[6] = biological target: T1, Rab13, loaded with GppNHp; assay: as above; conditions: both partners purified; remark: listed apart in the source
[7] = biological target: T3, Rab15, loaded with GppNHp (UniProt P59190 1-212); assay: as above; conditions: both partners purified
T3 construct: Rab15; source: expressed and purified as described previously (Bleimling et al., 2009), loaded with GppNHp, gel filtration
T3 sequence (looked up): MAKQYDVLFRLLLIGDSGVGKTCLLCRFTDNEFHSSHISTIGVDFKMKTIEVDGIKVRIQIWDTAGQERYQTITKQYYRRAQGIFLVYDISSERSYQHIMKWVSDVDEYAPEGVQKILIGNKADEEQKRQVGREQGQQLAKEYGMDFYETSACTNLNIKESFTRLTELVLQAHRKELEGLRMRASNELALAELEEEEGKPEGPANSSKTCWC

[8] = biological target: B4; assay: SEC; analytical size exclusion chromatography, Superdex S75 10/300 GL; 130 µM Rab:GppNHp + 112.5 µM (113 µM) bMERB domain; 20 mM Hepes pH 7.5, 50 mM NaCl, 2 mM DTE, 2 mM MgCl2; conditions: both partners purified
[9] = biological target: T2, Rab10, full length, loaded with GppNHp; assay: as above; conditions: both partners purified
[10] = biological target: B2; assay: ITC; iTC200, 25°C; 400 µM Rab titrated into 20–40 µM bMERB domain in the cell; 20 mM Hepes pH 7.5, 50 mM NaCl, 2 mM MgCl2, 1 mM TCEP; conditions: both partners purified
[11] = biological target: B1; assay: as above; conditions: both partners purified
[12] = biological target: B3; assay: as above; conditions: both partners purified
[13] = biological target: T4, bMERB domain (Rab binding domain) of EHBP1L1 (human, UniProt Q8N3D4 1340-1523); assay: as above; conditions: both partners purified
T4 construct: EHBP1L1, human, bMERB domain; EHBP1L1 1340-1523 (bMERB domain with CaaX box) is named for the prenylation and localisation experiments only; also called RBD of EHBP1L1

[14] = biological target: B5; assay: as above; conditions: both partners purified
[15] = biological target: B2; assay: as above; conditions: both partners purified; remark: listed apart in the source
[16] = biological target: T4, bMERB domain (Rab binding domain) of …; assay: as above; conditions: both partners purified; remark: listed apart in the source
[17] = biological target: B5; assay: as above; conditions: both partners purified; remark: listed apart in the source
[18] = biological target: B2; assay: SEC; analytical size exclusion chromatography with varying ratios of Rab8 and bMERB domain (1.2:1, 1.6:1, 2.2:1; effector 113 µM, Rab 130, 180 or 250 µM); stoichiometry from the peak of free excess Rab8; conditions: both partners purified
Rab10 residues 1-175 = biological target: T5, Rab10 residues 1-175 (human, UniProt P61026 1-175); assay: crystal structure; X-ray; sitting/hanging-drop vapour diffusion, 20°C; data from beamline X10SA, SLS; conditions: both partners purified
T5 construct: Rab10, human, residues 1-175; Used for the crystal of the 2:1 complex with Mical-1 918-1067; also called Rab10_(1-175); source: expressed and purified as described previously (Bleimling et al., 2009)
T5 sequence (looked up): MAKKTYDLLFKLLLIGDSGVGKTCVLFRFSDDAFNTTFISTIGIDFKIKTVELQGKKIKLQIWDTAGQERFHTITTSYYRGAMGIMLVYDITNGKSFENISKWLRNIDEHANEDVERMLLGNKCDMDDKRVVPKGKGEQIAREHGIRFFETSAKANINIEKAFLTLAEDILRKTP

T4 sequence (Q8N3D4 1340-1523): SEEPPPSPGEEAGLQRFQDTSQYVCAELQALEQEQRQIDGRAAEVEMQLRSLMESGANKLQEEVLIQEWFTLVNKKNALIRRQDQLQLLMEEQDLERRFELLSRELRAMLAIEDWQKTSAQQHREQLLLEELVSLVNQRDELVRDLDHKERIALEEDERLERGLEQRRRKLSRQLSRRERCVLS

Binder: B1
stoichiometry N [1]: 2
Kd [2]: 233 nM
Kd [3]: 93 nM
Kd [4]: 253 nM
Kd [5]: 790 nM
Kd [6]: 94 nM
Kd [7]: 33 nM

Binder: B2
stoichiometry N [1]: 2
binding result [8]: binds
binding result [9]: binds

Binder: B3
Kd [4]: 397 nM

Binder: B4
stoichiometry N [10]: 2
stoichiometry N [11]: 1
stoichiometry N [12]: 1
stoichiometry N [13]: 2
stoichiometry N [14]: 2
KD,1 (two-site fit) [15]: 27.9 nM
KD,1 (two-site fit) [16]: 159 nM
KD,1 (two-site fit) [17]: 55.5 nM
stoichiometry N [18]: 1

Binder: B5
binding result (Rab10 residues 1-175): binds
binding result [8]: binds
binding result [9]: binds
